From publication PMC11417369, “DNA sequence and chromatin differentiate sequence-specific transcription factor binding in the human malaria parasite Plasmodium falciparum”
Positions count from the first letter of the chain named.

T1: AP2-HC D1 (Plasmodium falciparum, UniProt Q8IKR9 1316-1374)
T1 sequence: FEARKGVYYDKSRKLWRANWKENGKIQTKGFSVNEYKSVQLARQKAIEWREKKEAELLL

B1: CACACA_site9021 (dsDNA)
DNA 1: ATTTCGTAATTTATATCACACACATATATATATAAT
DNA 2: ATTATATATATATGTGTGTGATATAAATTACGAAAT
B2: CACACA_site1501 (dsDNA)
DNA 1: TAATAATAATTATATACACACATGTATATTATATTT
DNA 2: AAATATAATATACATGTGTGTATATAATTATTATTA
B3: CACACA_site6815 (dsDNA)
DNA 1: B2 DNA 1 with T4G, A6G, A9G, T34G
DNA 2: B2 DNA 2 with A3C, T28C, T31C, A33C
B4: CACACA_site2473 (dsDNA)
DNA 1: GTTATTGTAAAAAGATTACACACGTTCTATATACTT
DNA 2: AAGTATATAGAACGTGTGTAATCTTTTTACAATAAC
B5: CACACA_site1808 (dsDNA)
DNA 1: ATAAATATTAAAAGTACACACAGATACACTAATTAT
DNA 2: ATAATTAGTGTATCTGTGTGTACTTTTAATATTTAT
B6: CACACA_site6369 (dsDNA)
DNA 1: ATAAATAAGATATATACACACATATCTATACATATT
DNA 2: AATATGTATAGATATGTGTGTATATATCTTATTTAT
B7: CACACA_site762 (dsDNA)
DNA 1: ATTTTTTTATTTTGTGCACACACATAAAAATATATA
DNA 2: TATATATTTTTATGTGTGTGCACAAAATAAAAAAAT
B8: CACACA_site269 (dsDNA)
DNA 1: AAATAATTCAAAAAAACACACAAATTACAAAATAAA
DNA 2: TTTATTTTGTAATTTGTGTGTTTTTTTGAATTATTT
B9: CACACA_site8007 (dsDNA)
DNA 1: TTTATTTTATCATTTGCACACGCACCCCCACATAAA
DNA 2: TTTATGTGGGGGTGCGTGTGCAAATGATAAAATAAA
B10: CACACA_site9254 (dsDNA)
DNA 1: TTAATAAATATCAATACACACACACTAATGTGAATA
DNA 2: TATTCACATTAGTGTGTGTGTATTGATATTTATTAA
B11: CACACA_site806 (dsDNA)
DNA 1: ATTTAAATAAGATATACACACAAGTAGAAGACTATG
DNA 2: CATAGTCTTCTACTTGTGTGTATATCTTATTTAAAT
B12: CACACA_site3027 (dsDNA)
DNA 1: AAGTTTATTTGTTGCACACATATAAGTAGAGAAAAT
DNA 2: ATTTTCTCTACTTATATGTGTGCAACAAATAAACTT
B13: CACACA_site2250 (dsDNA)
DNA 1: GAAAGAATAAAATTTACACACATATATATATACATA
DNA 2: TATGTATATATATATGTGTGTAAATTTTATTCTTTC
B14: CACACA_site1704 (dsDNA)
DNA 1: ACCTCATAATATTTAACACACAAAATTATATGTATG
DNA 2: CATACATATAATTTTGTGTGTTAAATATTATGAGGT
B15: CACACA_site2016 (dsDNA)
DNA 1: CCAACATATATTATCACACACATATATATATATATA
DNA 2: TATATATATATATATGTGTGTGATAATATATGTTGG
B16: CACACA_site7038 (dsDNA)
DNA 1: B15 DNA 1 with C1A, A10G, T27A, T33A
DNA 2: B15 DNA 2 with A4T, A10T, T27C, G36T
B17: CACACA_site1745 (dsDNA)
DNA 1: CACATACAGACATACACACATACACATATACGCATA
DNA 2: TATGCGTATATGTGTATGTGTGTATGTCTGTATGTG
B18: CACACA_site6756 (dsDNA)
DNA 1: ACAAATAAAAAAATTACACACATATAAAATATAGAT
DNA 2: ATCTATATTTTATATGTGTGTAATTTTTTTATTTGT
B19: CACACA_site2466 (dsDNA)
DNA 1: TACCTAATATGTTATACACACATTATGAGTACATAT
DNA 2: ATATGTACTCATAATGTGTGTATAACATATTAGGTA
B20: CACACA_site7206 (dsDNA)
DNA 1: B19 DNA 1 with G27A
DNA 2: B19 DNA 2 with C10T
B21: CACACA_site5095 (dsDNA)
DNA 1: ACATCATTTTTATGTACACACACATATACGTTGAAT
DNA 2: ATTCAACGTATATGTGTGTGTACATAAAAATGATGT
B22: CACACA_site3596 (dsDNA)
DNA 1: AAATTCAAACAAATTACACACATTTTTTTTTAATTT
DNA 2: AAATTAAAAAAAAATGTGTGTAATTTGTTTGAATTT
B23: CACACA_site7599 (dsDNA)
DNA 1: AGCATTTTAAGTTATACACACATTTTGAATCTATAT
DNA 2: ATATAGATTCAAAATGTGTGTATAACTTAAAATGCT
B24: CACACA_site5932 (dsDNA)
DNA 1: GCATTGTCCATGCGCACACACTACTAGAATAATATG
DNA 2: CATATTATTCTAGTAGTGTGTGCGCATGGACAATGC
B25: CACACA_site8859 (dsDNA)
DNA 1: ACGATGTTCATCACTACACACACAAAGAAATATATA
DNA 2: TATATATTTCTTTGTGTGTGTAGTGATGAACATCGT
B26: CACACA_site8596 (dsDNA)
DNA 1: AATGTGTATATATATACACACACATATATATATTTT
DNA 2: AAAATATATATATGTGTGTGTATATATATACACATT
B27: CACACA_site5129 (dsDNA)
DNA 1: TATAAATACATACGTACACACAAATATTAAAATATA
DNA 2: TATATTTTAATATTTGTGTGTACGTATGTATTTATA
B28: CACACA_site1955 (dsDNA)
DNA 1: AATGAATGTAAGAAAATACACACTAGTATAGTAACA
DNA 2: TGTTACTATACTAGTGTGTATTTTCTTACATTCATT
B29: CACACA_site1431 (dsDNA)
DNA 1: AAAAAAAAAAAAAATACACACAAATAATAAAAATAA
DNA 2: TTATTTTTATTATTTGTGTGTATTTTTTTTTTTTTT
B30: CACACA_site1016 (dsDNA)
DNA 1: AAATAATGGTTAGCTACACACAAAGCATTTTTTGAA
DNA 2: TTCAAAAAATGCTTTGTGTGTAGCTAACCATTATTT
B31: CACACA_site7028 (dsDNA)
DNA 1: CATACATACATACATACACACATATATAAATATATG
DNA 2: CATATATTTATATATGTGTGTATGTATGTATGTATG
B32: CACACA_site315 (dsDNA)
DNA 1: ACCAATAATATACATACACACATAAAGGTTTATATA
DNA 2: TATATAAACCTTTATGTGTGTATGTATATTATTGGT
B33: CACACA_site8037 (dsDNA)
DNA 1: TAAAAGAAATAAGGTGCACACATATACATATATATA
DNA 2: TATATATATGTATATGTGTGCACCTTATTTCTTTTA
B34: CACACA_site2516 (dsDNA)
DNA 1: AAAAAAAATGATAATATACACACTTATGGGAGAGCG
DNA 2: CGCTCTCCCATAAGTGTGTATATTATCATTTTTTTT
B35: CACACA_site2909 (dsDNA)
DNA 1: TTCTTTTTCCAATTTGCACACCACAAAATTATATAT
DNA 2: ATATATAATTTTGTGGTGTGCAAATTGGAAAAAGAA
B36: CACACA_site8531 (dsDNA)
DNA 1: ATTTATAATTTTTGAGCACACACAAGCATATATATA
DNA 2: TATATATATGCTTGTGTGTGCTCAAAAATTATAAAT
B37: CACACA_site8569 (dsDNA)
DNA 1: CTTTAATATTTTATTTCACACACATAAATGCCCCAA
DNA 2: TTGGGGCATTTATGTGTGTGAAATAAAATATTAAAG
B38: CACACA_site1591 (dsDNA)
DNA 1: TTAGCAACTATTACTACACACATTTGTATATAATTT
DNA 2: AAATTATATACAAATGTGTGTAGTAATAGTTGCTAA
B39: CACACA_site4030 (dsDNA)
DNA 1: AAGGAAATATAATATACACACATAAGTGTACTTATA
DNA 2: TATAAGTACACTTATGTGTGTATATTATATTTCCTT
B40: CACACA_site9374 (dsDNA)
DNA 1: TATAGAATAATCTATAAACACACAAACACAACAAAA
DNA 2: TTTTGTTGTGTTTGTGTGTTTATAGATTATTCTATA
B41: CACACA_site884 (dsDNA)
DNA 1: ATGTGGAAATAGAGCACACATATATATAATATATAT
DNA 2: ATATATATTATATATATGTGTGCTCTATTTCCACAT
B42: CACACA_site3383 (dsDNA)
DNA 1: ATATTAAACAAACACACACACATATATATATATATA
DNA 2: TATATATATATATATGTGTGTGTGTTTGTTTAATAT
B43: CACACA_site1421 (dsDNA)
DNA 1: AAAAGTAACAAAGCTACACACATTTAAATAAACATA
DNA 2: TATGTTTATTTAAATGTGTGTAGCTTTGTTACTTTT
B44: CACACA_site8 (dsDNA)
DNA 1: TTTATAATTTATATCACACACATATATATATAGTAA
DNA 2: TTACTATATATATATGTGTGTGATATAAATTATAAA

Each binder was assayed against T1, AP2-HC D1 (assay: gcPBM; about 25 ug protein; PBS, 1% milk, 0.2 mg/ml BSA, salmon testes DNA, 0.03% Triton X-100). Conditions: tags: N-terminal GST (pGEX-4T-1), kept; label: surface-attached array probe.

Binder	binding signal
B1	9.99 ln median PBM intensity, better of two orientations
B2	9.81 ln median PBM intensity, better of two orientations
B3	9.9 ln median PBM intensity, better of two orientations
B4	9.97 ln median PBM intensity, better of two orientations
B5	10 ln median PBM intensity, better of two orientations
B6	9.9 ln median PBM intensity, better of two orientations
B7	9.86 ln median PBM intensity, better of two orientations
B8	10.2 ln median PBM intensity, better of two orientations
B9	10 ln median PBM intensity, better of two orientations
B10	10.1 ln median PBM intensity, better of two orientations
B11	9.85 ln median PBM intensity, better of two orientations
B12	9.88 ln median PBM intensity, better of two orientations
B13	9.82 ln median PBM intensity, better of two orientations
B14	9.87 ln median PBM intensity, better of two orientations
B15	9.91 ln median PBM intensity, better of two orientations
B16	9.96 ln median PBM intensity, better of two orientations
B17	10.2 ln median PBM intensity, better of two orientations
B18	10.1 ln median PBM intensity, better of two orientations
B19	9.88 ln median PBM intensity, better of two orientations
B20	9.98 ln median PBM intensity, better of two orientations
B21	10.2 ln median PBM intensity, better of two orientations
B22	9.94 ln median PBM intensity, better of two orientations

Binder	binding signal
B23	9.87 ln median PBM intensity, better of two orientations
B24	10.2 ln median PBM intensity, better of two orientations
B25	10.1 ln median PBM intensity, better of two orientations
B26	10.1 ln median PBM intensity, better of two orientations
B27	9.91 ln median PBM intensity, better of two orientations
B28	9.93 ln median PBM intensity, better of two orientations
B29	10.1 ln median PBM intensity, better of two orientations
B30	9.81 ln median PBM intensity, better of two orientations
B31	10.2 ln median PBM intensity, better of two orientations
B32	9.89 ln median PBM intensity, better of two orientations
B33	9.97 ln median PBM intensity, better of two orientations
B34	9.94 ln median PBM intensity, better of two orientations
B35	10 ln median PBM intensity, better of two orientations
B36	9.85 ln median PBM intensity, better of two orientations
B37	9.84 ln median PBM intensity, better of two orientations
B38	9.95 ln median PBM intensity, better of two orientations
B39	9.82 ln median PBM intensity, better of two orientations
B40	10.1 ln median PBM intensity, better of two orientations
B41	9.92 ln median PBM intensity, better of two orientations
B42	10.2 ln median PBM intensity, better of two orientations
B43	9.84 ln median PBM intensity, better of two orientations
B44	9.83 ln median PBM intensity, better of two orientations
